Article PMC10014536

Target: bovine rhodopsin (bovine) (UniProt P02699)
Sequence of UniProt P02699 (P02699 whole entry): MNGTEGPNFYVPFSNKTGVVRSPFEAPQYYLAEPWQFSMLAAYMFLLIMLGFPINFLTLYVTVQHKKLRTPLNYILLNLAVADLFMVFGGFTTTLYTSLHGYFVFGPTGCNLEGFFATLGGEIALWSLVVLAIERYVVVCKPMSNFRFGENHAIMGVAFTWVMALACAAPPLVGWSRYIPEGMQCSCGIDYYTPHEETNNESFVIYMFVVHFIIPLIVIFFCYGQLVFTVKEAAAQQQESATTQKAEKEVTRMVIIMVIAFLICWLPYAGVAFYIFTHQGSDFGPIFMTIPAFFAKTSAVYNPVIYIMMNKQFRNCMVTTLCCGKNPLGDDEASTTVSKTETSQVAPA

light-evoked second messenger (cAMP) plate reader assay in transfected HEK293 cells, G-protein subtype profile of bovine rhodopsin (Supplementary Figure S5): 10%
Substance: Gso (Gs subunit chimera with a Go tail)
